Experimental data published in ChEMBL document CHEMBL1128147, “Mechanistic support for the stepwise process for inactivation of class A -lactamases by clavulanate” (Bioorg Med Chem Lett, 1995).

Substrate: O=C(O)[C@H]1C(CCO)O[C@@H]2CC(=O)N21
Description: Km for inactivation of TEM-1 beta-lactamase

B1: Beta-lactamase (Enterobacter cloacae), P05364 (protein)
chain: MMRKSLCCALLLGISCSALATPVSEKQLAEVVANTITPLMKAQSVPGMAVAVIYQGKPHYYTFGKADIAANKPVTPQTLFELGSISKTFTGVLGGDAIARGEISLDDAVTRYWPQLTGKQWQGIRMLDLATYTAGGLPLQVPDEVTDNASLLRFYQNWQPQWKPGTTRLYANASIGLFGALAVKPSGMPYEQAMTTRVLKPLKLDHTWINVPKAEEAHYAWGYRDGKAVRVSPGMLDAQAYGVKTNVQDMANWVMANMAPENVADASLKQGIALAQSRYWRIGSMYQGLGWEMLNWPVEANTVVEGSDSKVALAPLPVAEVNPPAPPVKASWVHKTGSTGGFGSYVAFIPEKQIGIVMLANTSYPNPARVEAAYHILEALQ
**Q.** For B1, which Km is on record?
**A.** The Km was 2.2 µM.
